Measurements from article PMC3025492.

Biological target: GST-capicua (1-450) (Homo sapiens, UniProt Q96RK0-2 1-450)
Assay: EMSA

B1: CRE probe (ETV4/ETV5 promoter CIC-responsive element) (dsDNA)
DNA 1: GTCGCGTTTTTTATGAATGAAAAACGTCCTTACATTCATT
DNA 2: AATGAATGTAAGGACGTTTTTCATTCATAAAAAACGCGAC
B1: binds.
